The values that follow are results of earlier work, collected in article PMC3652491.

pKd: −log10 of the molar value.

For the data set, the target named is Nef peptide 12-residue peptide (Human immunodeficiency virus 1) (UniProt P04324).

As to Hck SH3 (from UniProt P08631), the pKd (in general, the Kd on a negative log10 scale, so that one unit is a factor of ten) is 4.05.
